Tested on: Cabin 1-14
Sequence (chain, as listed by the source): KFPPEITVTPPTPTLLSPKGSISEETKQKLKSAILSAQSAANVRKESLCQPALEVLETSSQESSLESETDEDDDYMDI

calcineurin (endogenous, Jurkat T cells)
dephosphorylation of ΔNF-AT1 (Western blot gel shift) upon ionomycin with or without PMA: Overexpression of Cabin 1-14 inhibited the dephosphorylation of ΔNF-AT 1 upon treatment with ionomycin in the presence or absence of PMA

— patent US6686450
